Results reported in the supplement of paper PMC5998384.

How the values were obtained:
HeLa Kyoto [1] = experiment: solubility in G1/S (NP-40 vs SDS abundance) (log2 ratio); higher = more soluble; settings: cell cycle stage: G1/S
HeLa Kyoto [2] = experiment: melting temperature (median over replicates), in situ; higher = more thermally stable
HeLa Kyoto [3] = experiment: solubility change mitosis vs G1/S (difference of NP-40 vs SDS log2 ratios) (log2 ratio difference); higher = more soluble in mitosis
HeLa Kyoto [4] = experiment: thermal stability score vs G1/S (z-score of summed log2 fold changes over temperatures); higher = more thermally stable than in G1/S
[5] = cell cycle stage: early G1 (4.5 h after nocodazole release)
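Wherever melting temperature (median over replicates), in situ is given: HeLa Kyoto cells synchronized by double thymidine or nocodazole block, proteins quantified by TMT10plex mass spectrometry, three independent biological replicates.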
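Wherever solubility change mitosis vs G1/S (difference of NP-40 vs SDS log2 ratios) is given: synchronized HeLa Kyoto cells (double thymidine block for G1/S, nocodazole release for mitosis), protein amounts in NP-40 versus SDS lysates quantified by mass spectrometry, three biological replicates.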
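Wherever solubility in G1/S (NP-40 vs SDS abundance) is given: HeLa Kyoto cells arrested at G1/S by double thymidine block, proteins quantified by TMT10plex mass spectrometry in mild NP-40 versus SDS extracts, three biological replicates.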
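Wherever thermal stability score vs G1/S (z-score of summed log2 fold changes over temperatures) is given: synchronized HeLa Kyoto cells, proteins quantified by TMT10plex mass spectrometry, three biological replicates, mitosis taken 0.5 h after nocodazole release, G1/S directly after double thymidine block.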

Row | Sequence | solubility in G1/S (log2) (HeLa Kyoto [1]) | melting temperature (HeLa Kyoto [2]; cell cycle stage: G1/S) [°C] | melting temperature (HeLa Kyoto [2]; cell cycle stage: mitosis) [°C] | solubility change mitosis (log2) (HeLa Kyoto [3]) | thermal stability score (HeLa Kyoto [4]; [5]) | thermal stability score (HeLa Kyoto [4]; cell cycle stage: mitosis)
1 | MVVMARLSRPERPDLVFEEEDLPYEEEIMRNQFSVKCWLRYIEFKQGAPKPRLNQLYERALKLLPCSYKLWYRYLKARRAQVKHRCVTDPAYEDVNNCHERAFVFMHKMPRLWLDYCQFLMDQGRVTHTRRTFDRALRALPITQHSRIWPLYLRFLRSHPLPETAVRGYRRFLKLSPESAEEYIEYLKSSDRLDEAAQRLATVVNDERFVSKAGKSNYQLWHELCDLISQNPDKVQSLNVDAIIRGGLTRFTDQLGKLWCSLADYYIRSGHFEKARDVYEEAIRTVMTVRDFTQVFDSYAQFEESMIAAKMETASELGREEEDDVDLELRLARFEQLISRRPLLLNSVLLRQNPHHVHEWHKRVALHQGRPREIINTYTEAVQTVDPFKATGKPHTLWVAFAKFYEDNGQLDDARVILEKATKVNFKQVDDLASVWCQCGELELRHENYDEALRLLRKATALPARRAEYFDGSEPVQNRVYKSLKVWSMLADLEESLGTFQSTKAVYDRILDLRIATPQIVINYAMFLEEHKYFEESFKAYERGISLFKWPNVSDIWSTYLTKFIARYGGRKLERARDLFEQALDGCPPKYAKTLYLLYAQLEEEWGLARHAMAVYERATRAVEPAQQYDMFNIYIKRAAEIYGVTHTRGIYQKAIEVLSDEHAREMCLRFADMECKLGEIDRARAIYSFCSQICDPRTTGAFWQTWKDFEVRHGNEDTIKEMLRIRRSVQATYNTQVNFMASQMLKVSGSATGTVSDLAPGQSGMDDMKLLEQRAEQLAAEAERDQPLRAQSKILFVRSDASREELAELAQQVNPEEIQLGEDEDEDEMDLEPNEVRLEQQSVPAAVFGSLKED [XAB2] | -0.31 | 47.4 | 48.4 | 0.0385 | 2.02 | 4.49
2 | MDNLSDTLKKLKITAVDKTEDSLEGCLDCLLQALAQNNTETSEKIQASGILQLFASLLTPQSSCKAKVANIIAEVAKNEFMRIPCVDAGLISPLVQLLNSKDQEVLLQTGRALGNICYDSHEGRSAVDQAGGAQIVIDHLRSLCSITDPANEKLLTVFCGMLMNYSNENDSLQAQLINMGVIPTLVKLLGIHCQNAALTEMCLVAFGNLAELESSKEQFASTNIAEELVKLFKKQIEHDKREMIFEVLAPLAENDAIKLQLVEAGLVECLLEIVQQKVDSDKEDDITELKTGSDLMVLLLLGDESMQKLFEGGKGSVFQRVLSWIPSNNHQLQLAGALAIANFARNDANCIHMVDNGIVEKLMDLLDRHVEDGNVTVQHAALSALRNLAIPVINKAKMLSAGVTEAVLKFLKSEMPPVQFKLLGTLRMLIDAQAEAAEQLGKNVKLVERLVEWCEAKDHAGVMGESNRLLSALIRHSKSKDVIKTIVQSGGIKHLVTMATSEHVIMQNEALVALALIAALELGTAEKDLESAKLVQILHRLLADERSAPEIKYNSMVLICALMGSECLHKEVQDLAFLDVVSKLRSHENKSVAQQASLTEQRLTVES [RAP1GDS1] | 0.111 | 50.2 | 49.8 | -0.0374 | 1.29 | 1.87
3 | MSRIESLTRARIDRSRELASKTREKEKMKEAKDARYTNGHLFTTISVSGMTMCYACNKSITAKEALICPTCNVTIHNRCKDTLANCTKVKQKQQKAALLKNNTALQSVSLRSKTTIRERPSSAIYPSDSFRQSLLGSRRGRSSLSLAKSVSTTNIAGHFNDESPLGLRRILSQSTDSLNMRNRTLSVESLIDEAEVIYSELMSDFEMDEKDFAADSWSLAVDSSFLQQHKKEVMKQQDVIYELIQTELHHVRTLKIMTRLFRTGMLEELHLEPGVVQGLFPCVDELSDIHTRFLSQLLERRRQALCPGSTRNFVIHRLGDLLISQFSGPSAEQMCKTYSEFCSRHSKALKLYKELYARDKRFQQFIRKVTRPAVLKRHGVQECILLVTQRITKYPLLISRILQHSHGIEEERQDLTTALGLVKELLSNVDEGIYQLEKGARLQEIYNRMDPRAQTPVPGKGPFGREELLRRKLIHDGCLLWKTATGRFKDVLVLLMTDVLVFLQEKDQKYIFPTLDKPSVVSLQNLIVRDIANQEKGMFLISAAPPEMYEVHTASRDDRSTWIRVIQQSVRTCPSREDFPLIETEDEAYLRRIKMELQQKDRALVELLREKVGLFAEMTHFQAEEDGGSGMALPTLPRGLFRSESLESPRGERLLQDAIREVEGLKDLLVGPGVELLLTPREPALPLEPDSGGNTSPGVTANGEARTFNGSIELCRADSDSSQRDRNGNQLRSPQEEALQRLVNLYGLLHGLQAAVAQQDTLMEARFPEGPERREKLCRANSRDGEAGRAGAAPVAPEKQATELALLQRQHALLQEELRRCRRLGEERATEAGSLEARLRESEQARALLEREAEEARRQLAALGQTEPLPAEAPWARRPVDPRRRSLPAGDALYLSFNPPQPSRGTDRLDLPVTTRSVHRNFEDRERQELGSPEERLQDSSDPDTGSEEEGSSRLSPPHSPRDFTRMQDIPEETESRDGEAVASES [ARHGEF2] | -0.137 | 48.4 | 48.4 | -0.0226 | 0.217 | 2.08
4 | MSDNPPRMEVCPYCKKPFKRLKSHLPYCKMIGPTIPTDQKVYQSKPATLPRAKKMKGPIKDLIKAKGKELETENEERNSKLVVDKPEQTVKTFPLPAVGLERAATTKADKDIKNPIQPSFKMLKNTKPMTTFQEETKAQFYASEKTSPKRELAKDLPKSGESRCNPSEAGASLLVGSIEPSLSNQDRKYSSTLPNDVQTTSGDLKLDKIDPQRQELLVKLLDVPTGDCHISPKNVSDGVKRVRTLLSNERDSKGRDHLSGVPTDVTVTETPEKNTESLILSLKMSSLGKIQVMEKQEKGLTLGVETCGSKGNAEKSMSATEKQERTVMSHGCENFNTRDSVTGKESQGERPHLSLFIPRETTYQFHSVSQSSSQSLASLATTFLQEKKAEAQNHHCVPDVKALMESPEGQLSLEPKSDSQFQASHTGCQSPLCSAQRHTPQSPFTNHAAAAGRKTLRSCMGLEWFPELYPGYLGLGVLPGKPQCWNAMTQKPQLISPQGERLSQVSLLERSSTHIRSLEPPAGLTTSNFSLMRLLGAVQKGWIRCNTTIRKSGFGGITMLFTGYFVLCCSWSFRRLKKLCRPLPWKSTVPPCIGVAKTTGDCRSKTCLD [C17ORF80] | 0.0361 | 54.5 | 54 | -0.00249 | -2.69 | -2.84
5 | MPSATSHSGSGSKSSGPPPPSGSSGSEAAAGAGAAAPASQHPATGTGAVQTEAMKQILGVIDKKLRNLEKKKGKLDDYQERMNKGERLNQDQLDAVSKYQEVTNNLEFAKELQRSFMALSQDIQKTIKKTARREQLMREEAEQKRLKTVLELQYVLDKLGDDEVRTDLKQGLNGVPILSEEELSLLDEFYKLVDPERDMSLRLNEQYEHASIHLWDLLEGKEKPVCGTTYKVLKEIVERVFQSNYFDSTHNHQNGLCEEEEAASAPAVEDQVPEAEPEPAEEYTEQSEVESTEYVNRQFMAETQFTSGEKEQVDEWTVETVEVVNSLQQQPQAASPSVPEPHSLTPVAQADPLVRRQRVQDLMAQMQGPYNFIQDSMLDFENQTLDPAIVSAQPMNPTQNMDMPQLVCPPVHSESRLAQPNQVPVQPEATQVPLVSSTSEGYTASQPLYQPSHATEQRPQKEPIDQIQATISLNTDQTTASSSLPAASQPQVFQAGTSKPLHSSGINVNAAPFQSMQTVFNMNAPVPPVNEPETLKQQNQYQASYNQSFSSQPHQVEQTELQQEQLQTVVGTYHGSPDQSHQVTGNHQQPPQQNTGFPRSNQPYYNSRGVSRGGSRGARGLMNGYRGPANGFRGGYDGYRPSFSNTPNSGYTQSQFSAPRDYSGYQRDGYQQNFKRGSGQSGPRGAPRGRGGPPRPNRGMPQMNTQQVN [CAPRIN1] | -0.0442 | 54.8 | 54.9 | 0.14 | -0.0976 | -1.01
6 | MSRPLITRSPASPLNNQGIPTPAQLTKSNAPVHIDVGGHMYTSSLATLTKYPESRIGRLFDGTEPIVLDSLKQHYFIDRDGQMFRYILNFLRTSKLLIPDDFKDYTLLYEEAKYFQLQPMLLEMERWKQDRETGRFSRPCECLVVRVAPDLGERITLSGDKSLIEEVFPEIGDVMCNSVNAGWNHDSTHVIRFPLNGYCHLNSVQVLERLQQRGFEIVGSCGGGVDSSQFSEYVLRRELRRTPRVPSVIRIKQEPLD [KCTD1] | 0.464 | 58.7 | 55.9 | -0.267 | 0.414 | 0.162
7 | MPVWGGGNKCGACGRTVYHAEEVQCDGRSFHRCCFLCMVCRKNLDSTTVAIHDEEIYCKSCYGKKYGPKGYGYGQGAGTLNMDRGERLGIKPESVQPHRPTTNPNTSKFAQKYGGAEKCSRCGDSVYAAEKIIGAGKPWHKNCFRCAKCGKSLESTTLTEKEGEIYCKGCYAKNFGPKGFGYGQGAGALVHAQ [CSRP2] | -0.179 | 59.4 | 54.6 | -0.0558 | 1.39 | -3.46
8 | MQAARMAASLGRQLLRLGGGSSRLTALLGQPRPGPARRPYAGGAAQLALDKSDSHPSDALTRKKPAKAESKSFAVGMFKGQLTTDQVFPYPSVLNEEQTQFLKELVEPVSRFFEEVNDPAKNDALEMVEETTWQGLKELGAFGLQVPSELGGVGLCNTQYARLVEIVGMHDLGVGITLGAHQSIGFKGILLFGTKAQKEKYLPKLASGETVAAFCLTEPSSGSDAASIRTSAVPSPCGKYYTLNGSKLWISNGGLADIFTVFAKTPVTDPATGAVKEKITAFVVERGFGGITHGPPEKKMGIKASNTAEVFFDGVRVPSENVLGEVGSGFKVAMHILNNGRFGMAAALAGTMRGIIAKAVDHATNRTQFGEKIHNFGLIQEKLARMVMLQYVTESMAYMVSANMDQGATDFQIEAAISKIFGSEAAWKVTDECIQIMGGMGFMKEPGVERVLRDLRIFRIFEGTNDILRLFVALQGCMDKGKELSGLGSALKNPFGNAGLLLGEAGKQLRRRAGLGSGLSLSGLVHPELSRSGELAVRALEQFATVVEAKLIKHKKGIVNEQFLLQRLADGAIDLYAMVVVLSRASRSLSEGHPTAQHEKMLCDTWCIEAAARIREGMAALQSDPWQQELYRNFKSISKALVERGGVVTSNPLGF [ACADVL] | 0.117 | 54.9 | 55 | -0.118 | 0.172 | -2.03
9 | MSDIGDWFRSIPAITRYWFAATVAVPLVGKLGLISPAYLFLWPEAFLYRFQIWRPITATFYFPVGPGTGFLYLVNLYFLYQYSTRLETGAFDGRPADYLFMLLFNWICIVITGLAMDMQLLMIPLIMSVLYVWAQLNRDMIVSFWFGTRFKACYLPWVILGFNYIIGGSVINELIGNLVGHLYFFLMFRYPMDLGGRNFLSTPQFLYRWLPSRRGGVSGFGVPPASMRRAADQNGGGGRHNWGQGFRLGDQ [DERL1] | 0.00239 | 51.6 | 55.3 | -0.273 | -0.109 | -0.882
10 | MASAGDTQAGPRDAADQNFDYMFKLLLIGNSSVGKTSFLFRYADDSFTPAFVSTVGIDFKVKTVYRHDKRIKLQIWDTAGQERYRTITTAYYRGAMGFLLMYDIANQESFAAVQDWATQIKTYSWDNAQVILVGNKCDLEDERVVPAEDGRRLADDLGFEFFEASAKENINVKQVFERLVDVICEKMNESLEPSSSSGSNGKGPAVGDAPAPQPSSCSC [RAB3D] | 0.0512 | 57.2 | 57.6 | -0.109 | -1.66 | -1.58
